The record followed here is article PMC8626073.

For the series, the target named is T1, NlFMD-F (female-specific isoform, SR-rich protein) (Nilaparvata lugens, UniProt A0A974LNP1 1-613).
T1 sequence: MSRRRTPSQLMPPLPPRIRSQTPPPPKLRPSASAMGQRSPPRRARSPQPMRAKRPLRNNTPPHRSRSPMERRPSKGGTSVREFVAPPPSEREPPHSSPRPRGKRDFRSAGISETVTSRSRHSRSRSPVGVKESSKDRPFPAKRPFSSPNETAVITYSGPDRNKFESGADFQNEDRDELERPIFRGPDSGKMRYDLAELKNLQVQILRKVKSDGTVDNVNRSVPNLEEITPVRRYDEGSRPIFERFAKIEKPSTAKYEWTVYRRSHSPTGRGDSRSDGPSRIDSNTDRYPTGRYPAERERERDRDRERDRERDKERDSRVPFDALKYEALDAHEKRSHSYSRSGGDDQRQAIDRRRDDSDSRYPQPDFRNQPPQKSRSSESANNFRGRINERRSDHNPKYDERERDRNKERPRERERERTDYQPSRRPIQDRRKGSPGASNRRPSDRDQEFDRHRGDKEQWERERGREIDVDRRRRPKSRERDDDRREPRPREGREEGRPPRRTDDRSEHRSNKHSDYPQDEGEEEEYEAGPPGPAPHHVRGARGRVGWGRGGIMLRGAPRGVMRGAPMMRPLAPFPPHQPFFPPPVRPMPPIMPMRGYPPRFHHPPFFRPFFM
The series is described as follows: MST.

Take GAAGAAGAA (ssRNA) [GAAGAAGAA repeat (RAAGAA motif)]: the binding result is reported as “no binding”.
